Reference: paper doi:10.1101/2025.06.10.658938 (bioRxiv, 2025)
One block for each binder: values may come before it.

What was measured:
Assay in all cases: split reporter
[1] = target: T1, calcitonin-like receptor (CLR), smBit-tagged Target construct (UniProt Q16602 23-461)
[2] = target: T1, calcitonin-like receptor (CLR), …; remark: listed apart in the source
[3] = target: sphingosine 1-phosphate receptor 1 (S1PR1), smBit-tagged Target construct (UniProt P21453 1-347)
Sequence of sphingosine 1-phosphate receptor 1 (S1PR1), smBit-tagged Target construct (P21453 1-347): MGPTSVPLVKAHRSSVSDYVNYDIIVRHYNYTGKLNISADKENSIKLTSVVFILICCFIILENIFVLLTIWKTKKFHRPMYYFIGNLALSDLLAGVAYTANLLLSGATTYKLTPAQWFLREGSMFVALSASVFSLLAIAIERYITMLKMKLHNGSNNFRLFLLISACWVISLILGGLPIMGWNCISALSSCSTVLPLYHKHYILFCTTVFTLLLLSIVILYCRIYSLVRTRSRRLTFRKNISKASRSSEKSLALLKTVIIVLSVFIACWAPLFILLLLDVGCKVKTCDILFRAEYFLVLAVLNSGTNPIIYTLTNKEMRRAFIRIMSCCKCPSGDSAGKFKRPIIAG

T1 sequence (Q16602 23-461): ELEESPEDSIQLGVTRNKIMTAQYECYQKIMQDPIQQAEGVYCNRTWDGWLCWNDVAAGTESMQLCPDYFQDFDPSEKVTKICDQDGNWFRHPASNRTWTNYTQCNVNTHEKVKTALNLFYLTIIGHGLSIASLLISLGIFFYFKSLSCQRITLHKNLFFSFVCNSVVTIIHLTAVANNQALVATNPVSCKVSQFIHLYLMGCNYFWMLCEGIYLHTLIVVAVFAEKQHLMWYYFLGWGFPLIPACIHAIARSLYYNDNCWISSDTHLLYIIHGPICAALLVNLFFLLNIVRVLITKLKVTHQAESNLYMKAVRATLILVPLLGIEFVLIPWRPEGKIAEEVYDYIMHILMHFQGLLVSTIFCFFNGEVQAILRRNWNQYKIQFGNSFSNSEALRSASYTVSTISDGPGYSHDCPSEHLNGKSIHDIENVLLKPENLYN

B1: receptor activity-modifying protein 1 (RAMP1), LgBit-tagged Binder construct (natural protein)
chain: CQEANYGALLRELCLTQFQVDMEAVGETLWCDWGRTIRSYRELADCTWHMAEKLGCFWPNAEVDRFFLAVHGRYFRSCPISGRAVRDPPGSILYPFIVVPITVTLLVTALVVWQSKRTEGIV
fold change of NanoBit luminescence over CLR+CD8a (1 ng Binder DNA) [1]: 13 ± 1.45 fold
fold change of NanoBit luminescence over CLR+CD8a (20 ng Binder DNA) [1]: 2.16 ± 0.04 fold
fold change of expression-normalised NanoBit over CLR+CD8a (1 ng Binder DNA) [2]: 2.7 ± 0.2 fold
fold change of expression-normalised NanoBit over CLR+CD8a (5 ng Binder DNA) [2]: 2.9 ± 0.1 fold
fold change of expression-normalised NanoBit over CLR+CD8a (10 ng Binder DNA) [2]: 2.7 ± 0.1 fold
fold change of expression-normalised NanoBit over CLR+CD8a (20 ng Binder DNA) [2]: 2.1 ± 0.1 fold

Binder: LYPFIVVPITVTLLVTALVVWQSKRTEGIV (domain or fragment, UniProt O60894 119-148, looked up) [HALO-RAMP1-TM, LgBit-tagged Binder chimera]
fold reduction of expression-normalised NanoBit relative to WT CLR-RAMP1 [2]: 2 fold

Further lines, results first:

fold reduction of expression-normalised NanoBit relative to WT CLR-RAMP1 [2]: 2 fold
Binder: LYPFIVVPITVTLLVTALVVWQSKRTEGIV (domain or fragment, UniProt O60894 119-148, looked up) [InnTag5-RAMP1-TM, LgBit-tagged Binder chimera]

percent decrease of expression-normalised NanoBit relative to WT CD69 [3]: 30%
B2: CD69 V48F, V49F double mutant, LgBit-tagged Binder construct (natural protein)
chain: SENCFVAENSSLHPESGQENDATSPHFSTRHEGSFQVPVLCAVMNFFFITILIIALIALSVGQYNCPGQYTFSMPSDSHVSSCSEDWVGYQRKCYFISTVKRSWTSAQNACSEHGATLAVIDSEKDMNFLKRYAGREEHWVGLKKEPGHPWKWSNGKEFNNWFNVTGSDKCVFLKNTEVSSMECEKNLYWICNKPYK
